Reference: patent publication US8008547B2, “Glyphosate-N-acetyltransferase (GAT) genes” (E.I. duPont de Nemours, priority 2000, dated 2011)
Changes are numbered by the printed parent chain.

B1: SEQ ID NO: 340: GAT polypeptide (protein)
chain: MIEVKPINAEDTYEIRHRILRPNQPLEACKYETDLLGGTFHLGGYYRGKLISIASFHKAEHSELEGEEQYQLRGMATLEGYREQKAGSTLIRYAEELLRKKGADLLWCNARTSVSGYYKKLGFSEQGEVYDIPPIGPHILMYKKLT
modifications: 15F5
notes: GAT polypeptide
B2: SEQ ID NO: 341: GAT polypeptide (protein)
chain: B1 chain with K30M, F40L, R47Q, E63G, Y93H, K119E
modifications: 16A1
notes: GAT polypeptide
B3: SEQ ID NO: 343: GAT polypeptide (protein)
chain: B1 chain with N8S, K30M, T39A, R47Q, K58Q, E67Q, E68K, Y93H, K119E
modifications: 17C12
notes: GAT polypeptide
B4: SEQ ID NO: 342: GAT polypeptide (protein)
chain: B1 chain with E3D, R47Q, K58Q, E67Q, E68K, Y93H, K119E
modifications: 16H3
notes: GAT polypeptide
B5: SEQ ID NO: 347: GAT polypeptide (protein)
chain: B1 chain with K30M, R47Q, K58N, E67Q, E68K, Y93H, A103V, E128G, V129I, T146A
modifications: 20A12
notes: GAT polypeptide
B6: SEQ ID NO: 345: GAT polypeptide (protein)
chain: B1 chain with S52C, K58Q, E67Q, E68K, Y93H, S115R, K119E, E128G, T146A
modifications: 19C6
notes: GAT polypeptide
B7: SEQ ID NO: 355: GAT polypeptide (protein)
chain: MIEVKPINAEDTYEIRHRILRPNQPLEACKYETDLLGGTFHLGGYYQGKLISTASFHQAGHSELEGQKQYQLRGMATLEGYRERKAGSTLIRHAEELLRKKGADLLWCNARISASGYYKKLGFSEQGGVYDIPPIGPHILMYKKLT
modifications: 2H3
notes: GAT polypeptide
B8: SEQ ID NO: 320: GAT polypeptide (protein)
chain: MIEVKPINAEDTYEIRHRILRPNQPLEACMYETDLLRGTFHLGGYYRGKLVSIASFHQAEHPELEGQKQYQLRGMATLEEYREQKAGSTLIRHAEELLRKKGADLLWCNARTSASGYYKKLGFSEQGEVYDTPPAGPHILMYKKLT
modifications: 14_7A1
notes: GAT polypeptide
B9: SEQ ID NO: 332: GAT polypeptide (protein)
chain: B8 chain with M30K, T132I, A135V
modifications: 15_12D9
notes: GAT polypeptide
B10: SEQ ID NO: 322: GAT polypeptide (protein)
chain: B8 chain with M30K, T39A, V51I, H57N, E96A, A135V
modifications: 14_7G1
notes: GAT polypeptide
B11: SEQ ID NO: 331: GAT polypeptide (protein)
chain: B8 chain with M30K, R37G, E80G, E128K, T132I, A135V
modifications: 15_12D8
notes: GAT polypeptide
B12: SEQ ID NO: 339: GAT polypeptide (protein)
chain: B8 chain with M30K, R37G, V51I, K100R, T132I, A135V
modifications: 15_9F6
notes: GAT polypeptide
B13: SEQ ID NO: 333: GAT polypeptide (protein)
chain: B8 chain with M30K, T39A, V51I, A54V, E80G, K143T
modifications: 15_3F10
notes: GAT polypeptide
B14: SEQ ID NO: 336: GAT polypeptide (protein)
chain: B8 chain with M30K, R37G, T132I, A135T
modifications: 15_4H3
notes: GAT polypeptide
B15: SEQ ID NO: 338: GAT polypeptide (protein)
chain: B8 chain with M30K, T39A, E128K, T132I, A135V
modifications: 15_6G11
notes: GAT polypeptide
B16: SEQ ID NO: 350: GAT polypeptide (protein)
chain: B1 chain with K30M, R47Q, E67Q, E68K, Y93H, V114A, K119E, T146A
modifications: 23H11
notes: GAT polypeptide
B17: SEQ ID NO: 326: GAT polypeptide (protein)
chain: B8 chain with R37G, T132I, A135V
modifications: 15_10D6
notes: GAT polypeptide
B18: SEQ ID NO: 353: GAT polypeptide (protein)
chain: B1 chain with K58N, E67Q, E68K, Y93H, V114A, K119E, T146A
modifications: 24E7
notes: GAT polypeptide
B19: SEQ ID NO: 328: GAT polypeptide (protein)
chain: B8 chain with M30K, T39A, V51I, E80G, E96A, T132I, A135T
modifications: 15_11H3
notes: GAT polypeptide
B20: SEQ ID NO: 348: GAT polypeptide (protein)
chain: B1 chain with K30M, K58Q, E67Q, E68K, Y93H, K119E
modifications: 20F2
notes: GAT polypeptide
B21: SEQ ID NO: 354: GAT polypeptide (protein)
chain: B1 chain with K30M, G48D, K49R, K58Q, E67Q, E68K, Y93H, V114A, K119E
modifications: 2_8C3
notes: GAT polypeptide
B22: SEQ ID NO: 344: GAT polypeptide (protein)
chain: B1 chain with E67Q, E68K, Y93H, V114A, K119E, T146A
modifications: 18D6
notes: GAT polypeptide
B23: SEQ ID NO: 334: GAT polypeptide (protein)
chain: B8 chain with M30K, R37G, T132I, A135V
modifications: 15_3G11
notes: GAT polypeptide
B24: SEQ ID NO: 323: GAT polypeptide (protein)
chain: B8 chain with M30K, R37G, E80G, T132I, A135V
modifications: 14_7H9
notes: GAT polypeptide
B25: SEQ ID NO: 327: GAT polypeptide (protein)
chain: B8 chain with M30K, T39A, H57N, E80G, K100R, T132I, A135T
modifications: 15_11F9
notes: GAT polypeptide
B26: SEQ ID NO: 264: GAT polypeptide (protein)
chain: B8 chain with M30K, T39A, K68R, E80G, T132I, A135T
modifications: 13_12G6
notes: GAT polypeptide
B27: SEQ ID NO: 351: GAT polypeptide (protein)
chain: B1 chain with G48D, K49R, K58Q, E67Q, E68K, Y93H
modifications: 24C1
notes: GAT polypeptide
B28: SEQ ID NO: 325: GAT polypeptide (protein)
chain: B8 chain with M30K, T39A, E80G, S113T, Y130F, T132I, A135T
modifications: 15_10C2
notes: GAT polypeptide
B29: SEQ ID NO: 321: GAT polypeptide (protein)
chain: B8 chain with M30K, R37G, E60K, E80G, A135V
modifications: 14_7A9
notes: GAT polypeptide
B30: SEQ ID NO: 346: GAT polypeptide (protein)
chain: B1 chain with R18C, K30M, R47Q, E67Q, E68K, Y93H
modifications: 19D5
notes: GAT polypeptide
B31: SEQ ID NO: 263: GAT polypeptide (protein)
chain: B8 chain with M30K, V51I, E80G, T132I, A135V
modifications: 13_10F6
notes: GAT polypeptide
B32: SEQ ID NO: 337: GAT polypeptide (protein)
chain: B8 chain with M30K, R37G, V51I, T132I, A135T
modifications: 15_6D3
notes: GAT polypeptide
B33: SEQ ID NO: 349: GAT polypeptide (protein)
chain: B1 chain with T39A, R47Q, K58Q, E67Q, E68K, Y93H
modifications: 21E11
notes: GAT polypeptide
B34: SEQ ID NO: 352: GAT polypeptide (protein)
chain: B7 chain with K30M, Q47R, T53I, G60E, R84Q, A114V, T146A
modifications: 24C6
notes: GAT polypeptide
B35: SEQ ID NO: 265: GAT polypeptide (protein)
chain: B8 chain with M30K, R37G, G38S, V51I, H57N, E80G, A135V
modifications: 14_2A5
notes: GAT polypeptide
B36: SEQ ID NO: 330: GAT polypeptide (protein)
chain: B8 chain with T39A, E80G, A135V
modifications: 15_12D6
notes: GAT polypeptide
B37: SEQ ID NO: 335: GAT polypeptide (protein)
chain: B8 chain with E14K, R37G, H57N, E80G, E96A, T132I, A135T
modifications: 15_4F11
notes: GAT polypeptide
B38: SEQ ID NO: 324: GAT polypeptide (protein)
chain: B8 chain with M30K, R37G, E96A, T132I, A135T
modifications: 14_8F7
notes: GAT polypeptide
B39: SEQ ID NO: 329: GAT polypeptide (protein)
chain: B8 chain with M30K, R37G, V51I, E80G, E96A, T132I, A135T
modifications: 15_12A8
notes: GAT polypeptide

Test: Standard protocol for determination of kcat and KM (continuous spectrophotometric assay, Acetyl CoA hydrolysis at 235 nm)
Type: biochemical
Settings: purified protein; about 23° C.; 20 mM HEPES pH 6.8, 10% ethylene glycol, 0.2 mM acetyl CoA
How it was run: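 KM from initial rates over 0.125–10 mM glyphosate, fitted by Lineweaver-Burke transformation of Michaelis-Menten; kcat/KM computed as kcat divided by KM. Continuous spectrophotometric read of acetyl-CoA hydrolysis at 235 nm.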

| Molecule | Kcat |
| --- | --- |
| B1 | 0.5 min⁻¹ |
| B2 | 10.4 min⁻¹ |
| B3 | 3.2 min⁻¹ |
| B4 | 3.5 min⁻¹ |
| B5 | 2.8 min⁻¹ |
| B6 | 2.2 min⁻¹ |
| B7 | 16.1 min⁻¹ |
| B8 | 155.8 min⁻¹ |
| B9 | 59.7 min⁻¹ |
| B10 | 136.7 min⁻¹ |
| B11 | 59.7 min⁻¹ |
| B12 | 59.6 min⁻¹ |
| B13 | 48.7 min⁻¹ |
| B14 | 93.3 min⁻¹ |
| B15 | 36.9 min⁻¹ |
| B16 | 7.1 min⁻¹ |
| B17 | 67.1 min⁻¹ |
| B18 | 8.9 min⁻¹ |
| B19 | 61.9 min⁻¹ |
| B20 | 3.9 min⁻¹ |

| Molecule | Kcat |
| --- | --- |
| B21 | 24.8 min⁻¹ |
| B22 | 9.6 min⁻¹ |
| B23 | 71.5 min⁻¹ |
| B24 | 64.4 min⁻¹ |
| B25 | 76.4 min⁻¹ |
| B26 | 52.1 min⁻¹ |
| B27 | 1.7 min⁻¹ |
| B28 | 69.9 min⁻¹ |
| B29 | 245.9 min⁻¹ |
| B30 | 2.2 min⁻¹ |
| B31 | 48.6 min⁻¹ |
| B32 | 85.9 min⁻¹ |
| B33 | 1.1 min⁻¹ |
| B34 | 2.7 min⁻¹ |
| B35 | 280.8 min⁻¹ |
| B36 | 148.6 min⁻¹ |
| B37 | 80.3 min⁻¹ |
| B38 | 90.5 min⁻¹ |
| B39 | 77.1 min⁻¹ |

Same assay, conditions: purified protein; about 23° C.; pH 6.8; 0.2 mM acetyl CoA; glyphosate 0.125 to 10 mM

| Molecule | Km |
| --- | --- |
| B1 | 2.9 mM |
| B2 | 2.9 mM |
| B3 | 1.4 mM |
| B4 | 2.9 mM |
| B5 | 1.1 mM |
| B6 | 1.1 mM |
| B7 | 0.9 mM |
| B8 | 1.6 mM |
| B9 | 1.4 mM |
| B10 | 0.66 mM |
| B11 | 1.3 mM |
| B12 | 1.1 mM |
| B13 | 0.9 mM |
| B14 | 1 mM |
| B15 | 0.9 mM |
| B16 | 2.2 mM |
| B17 | 1 mM |
| B18 | 0.9 mM |
| B19 | 1 mM |
| B20 | 1.9 mM |

| Molecule | Km |
| --- | --- |
| B21 | 1.5 mM |
| B22 | 1.2 mM |
| B23 | 1.2 mM |
| B24 | 1.3 mM |
| B25 | 1 mM |
| B26 | 1.2 mM |
| B27 | 0.9 mM |
| B28 | 0.8 mM |
| B29 | 3.2 mM |
| B30 | 1.7 mM |
| B31 | 1.3 mM |
| B32 | 1.4 mM |
| B33 | 0.7 mM |
| B34 | 1.3 mM |
| B35 | 1.6 mM |
| B36 | 0.74 mM |
| B37 | 0.9 mM |
| B38 | 1.8 mM |
| B39 | 1.6 mM |
